Test results as given in the supplement of paper PMC7125110.
± gives the standard error. Variants at the floor of the assay were thinned out.

B1: glmS ribozyme (parent)
chain: AUAAAAGCGCCAGAACUACAGAAAUGUAGUUGACGAGGAGGAGGUUUAUCGAAUUUUCGGCGGAUGCCUCCAAA

Variants of: B1
Test: self-cleavage kobs at 2500 uM GlcN6P; higher = faster cleavage; RNA array
Conditions: with glucosamine-6-phosphate
Summary of the method: (§1)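 Ribozyme variants carrying barcodes were transcribed in situ on sequenced MiSeq chips by E. coli RNA polymerase and tracked at 37 °C with a hybridised Cy3 probe. They were exposed to 40 μM to 10 mM glucosamine-6-phosphate in HEPES/KCl/Mg(OAc)2 buffer. kobs came from exponential decay fits of normalised per-tile medians, and kcat and KM from weighted Michaelis–Menten fits.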

AUAAAAGCGCCAGAACUACAGAAAUGUAGUUGACGAGAUGGAGGUUUAUCGAAUUUUCGGCGGCUGCCUCCAAA and AUAAAAGCGCCAGAACUACAGAAAUGUAGUUGACGAGGCGGAGGUUUAUCGAAUUUUCAGCCGAUGCCUCCAAA cannot be ordered by “self-cleavage kobs at 2500 uM GlcN6P” value: < 1e-05 s⁻¹ for the first, < 1e-05 s⁻¹ for the second.

First: AUAAAAGCGCCAGAACUACAGAAAUGUAGUUGACGAGUAGGAGGUUUAGCGAAUUUACGGCGGAUGCCUGCAAA
Second: AUAAAAGCGCCAGAACUACAGAAAUGUAGUUGGCGAGGAGGAGGUUUAUCGAAUUCUCGACGGAUGCCUCCAAA
The “self-cleavage kobs at 2500 uM GlcN6P” value of the first is higher: 6.84e-05 ± 3.3e-05 s⁻¹ for the first, < 1e-05 s⁻¹ for the second.

First: AUAAAAGCGCCAGAACUACAGAAAUGUAGUUGACGAGCAGGAGGUUUAUCGAAUUAUCGGCGGAUGGGUCCAAA
Second: AUAAAAGCGCCAGAACUACAGAAAUGUAGUUGACGAAGACGAGGUUGAUCGAAUUGUCGCCGGAUGCCUCGAAA
The “self-cleavage kobs at 2500 uM GlcN6P” value of the first is higher: 0.000115 ± 4.5e-05 s⁻¹ for the first, < 1e-05 s⁻¹ for the second.

AUAAAAGCGCCAGAACUACAGAAAUGUAGUUGAGCAGGAGGAGGUUUAUCCAAUUUGUGGCGGAUGCCUCCAAA and AUAAAAGCGCCAGAACUACAGAAAUGUAGUUGGCGGGUAGGAGGUUUAUCGAAUUUUCGGUGGAUGCCUCAAAA cannot be ordered by “self-cleavage kobs at 2500 uM GlcN6P” value: < 1e-05 s⁻¹ for the first, < 1e-05 s⁻¹ for the second.

Compared with AUAAAAGCGCCAGAACUACAGAAAUGUAGUUGACAAGGAGGAGGUUUAUUGAAUUUUCGGCGGAUGCCUCCAAA, AUAAAAGCGCCAGAACUACAGAAAUGUAGUUGACGAGUAGGAGGGUUAUCAAAUUUUCGGCGGAUGUCUCCAAA is lower in “self-cleavage kobs at 2500 uM GlcN6P” value: 2.72e-05 ± 1.2e-05 s⁻¹ for the first, < 1e-05 s⁻¹ for the second.

AUAAAAGCGCCAGAACUACAGAAAUGUAGUUGACAAGGAGGAGGUUUAUCGAAUUUUCGGCGGAUGCCCCCAAA and AUAAAAGCGCCAGAACUACAGAAAUGUAGUUGAAGCUGAGGAGGUUUAUCUAAUUUUCGGCGGAUGCCUCCAAA cannot be ordered by “self-cleavage kobs at 2500 uM GlcN6P” value: < 1e-05 s⁻¹ for the first, < 1e-05 s⁻¹ for the second.

AUAAAAGCGCCAGAACUACAGAAAUGUAGUUGAAGAGGCGGAGGUUUAUCGAAUUUUCGGCGGAUCCCUCAAAA and AUAAAAGCGCCAGAACUACAGAAAUGUAGUUGACGAGAAGGAGGUUUAUCCUAUUUUCGGCAGAUGCCUCCAAA cannot be ordered by “self-cleavage kobs at 2500 uM GlcN6P” value: < 1e-05 s⁻¹ for the first, < 1e-05 s⁻¹ for the second.

AUAAAAGCGCCAGAACUACAGAAAUGUAGUUGGCGAGUAGGAGAUUUAUCGAAUUUUCGGCGGAUGGCUCUAAA and AUAAAAGCGCCAGAACUACAGAAAUGUAGUUGUCAAGGAGGAGGGUUAUGGAAUUUUCGGCGGAUGCCUACAAA cannot be ordered by “self-cleavage kobs at 2500 uM GlcN6P” value: < 1e-05 s⁻¹ for the first, < 1e-05 s⁻¹ for the second.

Compared with AUAAAAGCGCCAGAACUACAGAAAUGUAGUUGACGAGUAGGAGGUUUAUCGAAGUUUCGGCGGAUGCCUCAAAA, AUAAAAGCGCCAGAACUACAGAAAUGUAGUUGGCGAGGAGGAGGUAUAUCGAAUUUUCCGCGGAUGGGUCCAAA is higher in “self-cleavage kobs at 2500 uM GlcN6P” value: < 1e-05 s⁻¹ for the first, 4.87e-05 ± 2.1e-05 s⁻¹ for the second.

First: AUAAAAGCGCCAGAACUACAGAAAUGUAGUUGACAAGGAGGAGGUUUAUGGAAGUUUCGGCGGCUGCCUCCAAA
Second: AUAAAAGCGCCAGAACUACAGAAAUGUAGUUGUCGAGGAGUAGGUUUAUCGAAUUUUCGGCUGAUGCCUCCAAA
The “self-cleavage kobs at 2500 uM GlcN6P” value of the first is higher: 7.23e-05 ± 2.7e-05 s⁻¹ for the first, < 1e-05 s⁻¹ for the second.

AUAAAAGCGCCAGAACUACAGAAAUGUAGUUGACGAUGAGGAGUUUUAUCGAAUUUUCGGCGGAUGCCUGCAAA and AUAAAAGCGCCAGAACUACAGAAAUGUAGUUGACGAGAAGGAGGUUUAUCGAAUUUUCGGCAUAUGCCUCCAAA cannot be ordered by “self-cleavage kobs at 2500 uM GlcN6P” value: < 1e-05 s⁻¹ for the first, < 1e-05 s⁻¹ for the second.

AUAAAAGCGCCAGAACUACAGAAAUGUAGUUGACCAGGAGAAGAUUUAUCGAAUUUUCGGCGGAUACCUCCAAA and AUAAAAGCGCCAGAACUACAGAAAUGUAGUUGACGGGGAGUAGGUUUAUCGAAUUUUCGACGGAUGCCUCCAAA cannot be ordered by “self-cleavage kobs at 2500 uM GlcN6P” value: < 1e-05 s⁻¹ for the first, < 1e-05 s⁻¹ for the second.

First: AUAAAAGCGCCAGAACUACAGAAAUGUAGUUGGUGAGGAGGAGGUUUAACGAAUUUUCGGCGGAUGCCUCCAAA
Second: AUAAAAGCGCCAGAACUACAGAAAUGUAGUUGCCGAGGAGGAGGUUUAUCGAAUUGUCGGCGGAUGCCUCCAAA
The “self-cleavage kobs at 2500 uM GlcN6P” value of the first is lower: < 1e-05 s⁻¹ for the first, 5.24e-05 ± 2.2e-05 s⁻¹ for the second.

AUAAAAGCGCCAGAACUACAGAAAUGUAGUUGACUAGGAGAAGGUUUAUCGUAUUUUCGGCGGAUGCCUCUAAA and AUAAAAGCGCCAGAACUACAGAAAUGUAGUUGACGAGCAGGAGGUUUAUCGAUUUUUCGGCGGAUGCCUCCAAA cannot be ordered by “self-cleavage kobs at 2500 uM GlcN6P” value: < 1e-05 s⁻¹ for the first, < 1e-05 s⁻¹ for the second.

Compared with AUAAAAGCGCCAGAACUACAGAAAUGUAGUUGACGAGGCGGAGCUUUAUCGAAUUUUCGGCGGAUGACUCCAAA, AUAAAAGCGCCAGAACUACAGAAAUGUAGUUGACGACGAGGAGGUUUAUCGAAUUUUCGCCGGAUGCGUCCAAA is lower in “self-cleavage kobs at 2500 uM GlcN6P” value: 0.000176 ± 4.5e-05 s⁻¹ for the first, < 1e-05 s⁻¹ for the second.

AUAAAAGCGCCAGAACUACAGAAAUGUAGUUGACUAGGAGGUGGUUUAACGAUUUUUCGGCGGAUGCCUCCAAA and AUAAAAGCGCCAGAACUACAGAAAUGUAGUUGACCAGGAGGAGGUCUAUCGCACUUUCGGCGGAUGCCUCCAAA cannot be ordered by “self-cleavage kobs at 2500 uM GlcN6P” value: < 1e-05 s⁻¹ for the first, < 1e-05 s⁻¹ for the second.

With AUAAAAGCGCCAGAACUACAGAAAUGUAGUUGCCGAGGAGGAGGUUUAUCGAAUUCUCGGCGGAUGCCUCAAAA the “self-cleavage kobs at 2500 uM GlcN6P” value was < 1e-05 s⁻¹.

Variants of: B1
Test: self-cleavage kobs at 10000 uM GlcN6P; higher = faster cleavage; RNA array
Conditions: with glucosamine-6-phosphate
Summary of the method: as §1

Compared with AUAAAAGCGCCAGAACUACAGAAAUGUAGUUGACAAGGAGGAGGUUUAUUGAAUUUUCGGCGGAUGCCUCCAAA, AUAAAAGCGCCAGAACUACAGAAAUGUAGUUGACAAGGAGGAGGUUUAUCGAAUUUUCGGCGGAUGCCCCCAAA is lower in “self-cleavage kobs at 10000 uM GlcN6P” value: 4.87e-05 ± 8e-06 s⁻¹ for the first, < 1e-05 s⁻¹ for the second.

Compared with AUAAAAGCGCCAGAACUACAGAAAUGUAGUUGCCGAGGAGGAGGUUUAUCGAAUUGUCGGCGGAUGCCUCCAAA, AUAAAAGCGCCAGAACUACAGAAAUGUAGUUGACGAGCAGGAGGUUUAUCGAUUUUUCGGCGGAUGCCUCCAAA is lower in “self-cleavage kobs at 10000 uM GlcN6P” value: 5.35e-05 ± 1e-05 s⁻¹ for the first, < 1e-05 s⁻¹ for the second.
